In the data set the target is CsrA-3xFLAG (Escherichia coli) (UniProt P69913). The data set is described as follows: competition. Conditions: competitor conc. that fully displaces labeled RrBshort (120 pM) from 200 nM CsrA; CsrA EMSA: 100 mM KCl, 10 mM MgCl2, 2 mM DTT, 7.5% glycerol, 2 ng total yeast RNA, 120 pM RNA, 10 min 37 C, 8% native PAGE in 1x TBE (pH not stated); Hfq EMSA: …. (In EMSA bound probe runs differently from free probe, usually more slowly.)

One substance from article PMC8144298 can be followed below.

Chain of CsrA-3xFLAG (Escherichia coli) (P69913 whole entry): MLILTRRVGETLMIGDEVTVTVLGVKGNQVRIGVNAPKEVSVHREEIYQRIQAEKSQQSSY

The substance CsrB showed a binding signal of 3.13 nM.
